Laboratory results taken from patent US20260218128A1.

Columns and labels:
NKG2D ligands [1] = test: flow cytometry, human primary NK cells after 24 h 1:1 co-culture with THP-1 cells, NKG2D-Fc protein 5 µg/mL, anti-human IgG Fc-PE; histogram peak near 10^2; control NK only+PBS: 12.0
NKG2D ligands [2] = test: flow cytometry, human primary NK cells after 24 h 1:1 co-culture with NKG2D-UCAR-T cells, NKG2D-Fc protein 5 µg/mL, anti-human IgG Fc-PE; histogram peak near 10^2; control NK only+PBS: 12.0
NKG2D ligands [3] = test: flow cytometry, human primary NK cells after 24 h 1:1 co-culture with MV4-11 cells, NKG2D-Fc protein 5 µg/mL, anti-human IgG Fc-PE; faint histogram near 10^2; control NK only+PBS: 12.0
NKG2D ligands [4] = test: flow cytometry, human primary NK cells after 24 h 1:1 co-culture with KG-1 cells, NKG2D-Fc protein 5 µg/mL, anti-human IgG Fc-PE; histogram peak near 10^2; control NK only+PBS: 12.0
NKG2D ligands [5] = test: flow cytometry, human primary NK cells after 24 h 1:1 co-culture with HL60 cells, NKG2D-Fc protein 5 µg/mL, anti-human IgG Fc-PE; histogram peak near 10^2; control NK only+PBS: 12.0

Sequence of NKG2D-Fc protein (P26718 78-216 limits assumed): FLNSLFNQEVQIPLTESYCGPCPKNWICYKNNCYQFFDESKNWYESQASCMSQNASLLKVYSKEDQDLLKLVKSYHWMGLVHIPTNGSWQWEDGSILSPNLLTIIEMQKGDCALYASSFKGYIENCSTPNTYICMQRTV

- PE fluorescence statistic, name not given (NKG2D ligands [1]): 125
- PE fluorescence statistic, name not given (NKG2D ligands [2]): 95
- PE fluorescence statistic, name not given (NKG2D ligands [3]): 124
- PE fluorescence statistic, name not given (NKG2D ligands [4]): 99.7
- PE fluorescence statistic, name not given (NKG2D ligands [5]): 107
Substance: NKG2D-Fc protein (from UniProt P26718) (Fc fusion)
